From patent US20160200831A1 (Sanofi, published 2016)

Tests used:
[1] = molecular target: T1, glycosylated human PAI-1 (active form) (human, UniProt P05121 24-402, glycosylated); assay: SPR Biacore 2000, mAb captured by anti-Fc, single-cycle kinetics, 1:1 model
T1 construct: bought (Molecular Innovations / Innovative Research); also called gly hPAI-1; Human Glycosylated PAI-1
Experimental: First, the surface of a Sensor Chip CM5 (GE Healthcare, Uppsala, Sweden) was prepared using routine amine coupling for the capture of the mouse and human anti-Fc (Anti-human IgG (Fc) antibody & Anti-mouse IgG antibody kits, GE Healthcare). All monoclonal antibodies (mAbs) were diluted to 5 nM using HBS-EP running buffer. Each purified mAb was captured for three minutes on a different flow cell surface. Human PAI-1 was injected at various concentrations (2.5, 5, 10, 20 and 40 nM) with short dissociation times in between and a long dissociation time at the end (contact time: 120 seconds, short dissociation: 90 seconds; long dissociation: 1800 seconds, flow rate: 50 μl/min). The chip was regenerated by glycine-HCl, pH 1.7 buffer after each round of antibody-PAI-1 binding. Kinetics data analysis was performed using Biacore BIAevaluation software. The sensorgrams were double-referenced by subtracting the reference flow cell values and the blank buffer values. The sensorgrams were fitted by using the simulated kinetics 1:1 (Langmuir) model with local Rmax. (see FIG. 19).

[2] = molecular target: T2, human PAI-1 (human, UniProt P05121 24-402); assay: cell-based or functional assay
T2 sequence (P05121 24-402 limits assumed): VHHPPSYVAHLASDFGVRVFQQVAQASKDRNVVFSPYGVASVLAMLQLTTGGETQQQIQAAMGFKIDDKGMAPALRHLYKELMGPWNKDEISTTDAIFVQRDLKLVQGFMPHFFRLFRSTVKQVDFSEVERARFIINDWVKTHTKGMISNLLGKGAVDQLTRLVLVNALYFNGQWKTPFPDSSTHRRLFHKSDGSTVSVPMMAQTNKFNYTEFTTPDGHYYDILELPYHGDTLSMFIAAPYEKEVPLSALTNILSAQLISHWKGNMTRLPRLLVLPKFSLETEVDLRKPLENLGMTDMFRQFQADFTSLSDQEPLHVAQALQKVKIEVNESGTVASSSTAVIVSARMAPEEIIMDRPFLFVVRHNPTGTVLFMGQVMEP

[3] = molecular target: T1, glycosylated human PAI-1 (active form); assay: cell-based or functional assay
[4] = molecular target: T3, human PAI-1 captured on immobilized human vitronectin (human, UniProt P04004 20-478); assay: Biacore, hPAI-1 on vitronectin chip, two state reaction model
T3 construct: non-covalent complex formed on the chip or plate; also called PAI-1/Vn complex; Vn captured hPAI-1
T3 sequence (chain, as listed by the source limits assumed, chain 1 of 2): as the sequence (P05121 24-402 limits assumed) above
T3 sequence (P04004 20-478 limits assumed, chain 2 of 2): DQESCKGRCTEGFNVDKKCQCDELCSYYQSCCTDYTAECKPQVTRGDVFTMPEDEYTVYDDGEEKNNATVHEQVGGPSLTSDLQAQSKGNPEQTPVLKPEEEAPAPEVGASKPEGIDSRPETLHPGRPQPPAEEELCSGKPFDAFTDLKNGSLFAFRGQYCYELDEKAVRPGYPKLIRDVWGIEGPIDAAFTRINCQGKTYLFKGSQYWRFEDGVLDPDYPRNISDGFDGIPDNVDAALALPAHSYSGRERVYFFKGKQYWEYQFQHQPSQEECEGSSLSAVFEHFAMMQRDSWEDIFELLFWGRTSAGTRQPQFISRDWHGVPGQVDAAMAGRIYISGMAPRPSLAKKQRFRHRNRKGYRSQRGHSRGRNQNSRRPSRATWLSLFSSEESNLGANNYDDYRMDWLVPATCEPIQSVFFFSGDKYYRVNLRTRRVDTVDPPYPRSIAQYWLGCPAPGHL

[5] = molecular target: T3, human PAI-1 captured on immobilized …; assay: Biacore, hPAI-1 on vitronectin chip, two state reaction model (ka1)
[6] = molecular target: T4, cyno PAI-1 captured on immobilized human vitronectin (cynomolgus monkey; human, UniProt P04004 20-478, limits assumed); assay: Biacore, cPAI-1 on vitronectin chip, two state reaction model
T4 construct: non-covalent complex formed on the chip; also called cPAI-1/Vn
T4 sequence (chain, as listed by the source limits assumed, chain 1 of 2): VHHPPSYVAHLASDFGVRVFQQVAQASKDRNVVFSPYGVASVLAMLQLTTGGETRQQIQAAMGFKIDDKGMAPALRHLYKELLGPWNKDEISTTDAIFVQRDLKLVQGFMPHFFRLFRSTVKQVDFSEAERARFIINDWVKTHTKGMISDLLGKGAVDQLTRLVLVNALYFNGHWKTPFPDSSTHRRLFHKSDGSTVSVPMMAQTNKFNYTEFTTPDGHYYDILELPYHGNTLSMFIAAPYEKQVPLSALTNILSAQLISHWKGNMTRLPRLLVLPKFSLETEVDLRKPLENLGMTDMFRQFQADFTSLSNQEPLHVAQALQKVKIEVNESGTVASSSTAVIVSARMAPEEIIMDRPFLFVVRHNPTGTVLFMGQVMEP
T4 sequence (P04004 20-478 limits assumed, chain 2 of 2): as the sequence (P04004 20-478 limits assumed, chain 2 of 2) above

[7] = molecular target: T2, human PAI-1; assay: cell-based or functional assay; remark: listed apart in the source
[8] = molecular target: T4, cyno PAI-1 captured on immobilized …; assay: Biacore, cPAI-1 on vitronectin chip, two state reaction model (ka1)
[9] = molecular target: T4, cyno PAI-1 captured on immobilized …; assay: Biacore, cPAI-1 on vitronectin chip, two state reaction model (kd1)
[10] = molecular target: T3, human PAI-1 captured on immobilized …; assay: Biacore, hPAI-1 on vitronectin chip, two state reaction model (kd1)
[11] = molecular target: T1, glycosylated human PAI-1 (active form); assay: cell-based or functional assay; remark: listed apart in the source
[12] = molecular target: T2, human PAI-1; assay: Biacore, mAb on anti-human IgG Fc chip, 1:1 model
[13] = molecular target: T2, human PAI-1; assay: cell-based or functional assay; remark: listed apart in the source
[14] = molecular target: T5, cynomolgus PAI-1 (cynomolgus monkey (Macaca fascicularis), UniProt P05121 24-402 (human entry)); assay: cell-based or functional assay
[15] = molecular target: T5, cynomolgus PAI-1; assay: Biacore, mAb on anti-human IgG Fc chip / cyno PAI-1, 1:1 model
[16] = molecular target: T2, human PAI-1; assay: Biacore, hybridoma supernatant
[17] = molecular target: T5, cynomolgus PAI-1; assay: Biacore, hybridoma supernatant
[18] = molecular target: T1, glycosylated human PAI-1 (active form); assay: cell-based or functional assay; remark: listed apart in the source
[19] = molecular target: T1, glycosylated human PAI-1 (active form); assay: cell-based or functional assay; remark: listed apart in the source
[20] = molecular target: T1, glycosylated human PAI-1 (active form); assay: Biacore (summary table)
Experimental: (§1) In kinetics measurement, the antibodies were evaluated in reverse at 25° C. In the reverse assay, PAI-1 antibodies were captured to the anti-mouse IgG Fc antibody surface prepared on CM5 chip followed by injecting the serial 2× dilutions of PAI-1 proteins (human or cyno) starting at 40 nM. A high flow rate was chosen at 50 ul/min to avoid mass transportation limitation. Two thousand seconds was allowed for dissociation time to accommodate for the slow off rate of the selected antibodies. The chip was regenerated by glycine-HCl, pH 1.7 buffer after each round of antibody-PAI-1 binding. Kinetics data analysis was performed using Biacore BIAevaluation software. The sensorgrams were double-referenced by subtracting the reference flow cell values and the blank buffer values. The sensorgrams were fitted by using the simulated kinetics 1:1 (Langmuir) model with local Rmax.

[21] = molecular target: T2, human PAI-1; assay: Biacore reverse assay, mAb captured by anti-mouse IgG Fc, 25 C
Experimental: as §1

[22] = molecular target: T2, human PAI-1; assay: cell-based or functional assay; remark: listed apart in the source

T1 sequence (P05121 24-402 limits assumed): as the sequence (P05121 24-402 limits assumed) above

Binder	Kd [1]	koff [1]	PAI-1 activity in human plasma (uPA-PAI-1 complex ELISA), IC50abs [2]	PAI-1 activity in human plasma (uPA-PAI-1 complex ELISA), Imax [2]	human plasma clot lysis, IC50 [3]	human plasma clot lysis, Imax @ 100 nM [3]	koff [16]	plasmin generation, hepatic stellate cells, IC50abs [18]	plasmin generation, hepatic stellate cells, Imax [18]	Chromogenic Assays [19]	Plasmin Generation [19]	further results
A44-hv7 (antibody, V domains shown, humanized A44, HEK293; constant regions as for A44-hv1; also called LC4 x HC4; variant 7) VH: QMTLKESGPTLVKPTQTLSLTCSVSGESMTQGYWNWIRQFPGKALEYMGYITYSGSTYYNPSLKGRITITRQTSKNQYYLTLSSVTTVETATYYCARWHYGSPYYFDYWGQGTTLTVSS VL: DIKMTQSPSSLSASVGDRVTITCKASQDINSYLSWLQQKPGKSPKTLIYRAQRSVEGVPSRFSGSGSGQDYSLTISSLQPEDLATYYCLQYDEFPPTFGGGTKLEIK	–	–	–	–	–	–	–	–	–	–	–	Kd [4]: 0.0964 nM; kon [5]: 4.14e+06 M⁻¹ s⁻¹; Kd [6]: 0.0956 nM; Chromogenic Assay IC50 [7]: 0.59 nM; kon [8]: 2.5e+06 M⁻¹ s⁻¹; koff [9]: 0.000239 s⁻¹; koff [10]: 0.000394 s⁻¹
A44-hv13 (antibody, V domains shown, humanized A44, HEK293; constant regions as for A44-hv1; also called LC2 x HC5b; variant 13) VH: QMQLQESGPGLVKPSETLSLTCTVSGDSMTNGYWNWIRQPPGKGLEYMGYITYSGSTYYNPSLKSRITISRDTSKNQYSLKLSSVTAADTAVYYCARWHYGSPYYFDYWGQGTLVTVSS VL: DIKMTQSPSSLSASVGDRVTITCKASQDINSYLSWLQQKPGKSPKTLIYRAQRSVEGVPSRFSGSGSGQDYSLTISSLQPEDLGIYYCLQYDEFPPTFGGGTKLEIK	–	–	–	–	–	–	–	–	–	–	–	Kd [4]: 0.179 nM; Plasminogen Activation IC50 [11]: 1.82 nM; Plasminogen Activation Y50% [11]: 71.1%; kon [5]: 2.4e+06 M⁻¹ s⁻¹; Kd [12]: 0.0164 nM; koff [12]: 2.52e-05 s⁻¹; kon [12]: 1.54e+06 M⁻¹ s⁻¹; Kd [6]: 0.115 nM; kon [8]: 2.12e+06 M⁻¹ s⁻¹; active PAI-1 by uPA-PAI-1 complex ELISA, hPAI-1 Standard, IC50 [13]: 0.166 nM; active PAI-1 by uPA-PAI-1 complex ELISA, hPAI-1 Standard, Y50% [13]: 52.8%; active PAI-1 by uPA-PAI-1 complex ELISA, hPlasma TH1782, IC50 [13]: 0.0311 nM; active PAI-1 by uPA-PAI-1 complex ELISA, hPlasma TH1782, Y50% [13]: 61.4%; active PAI-1 by uPA-PAI-1 complex ELISA, Cyno PAI-1, IC50 [14]: 0.0281 nM; active PAI-1 by uPA-PAI-1 complex ELISA, Cyno PAI-1, Y50% [14]: 52.8%; Kd [15]: 0.027 nM; koff [15]: 5.08e-05 s⁻¹; kon [15]: 1.89e+06 M⁻¹ s⁻¹; koff [9]: 0.000243 s⁻¹; koff [10]: 0.000436 s⁻¹
E16 (antibody, mouse IgG1, V domains shown, mouse IgG1; also called mE16; E16 (IgG1)) VH: EVKLVESGGGLVKPGGSLKLSCAASGFTFSNYGMSWVRQTPEKGLGWVASLRTGGNTYYSDSVKGRFTISRDNDRNILYLQMSSLTSEDTAVYYCARGLRHWGYFDVWGAGTTVTVSS VL: DIVMTQSHKFMSTSVGDRVNITCKASQDVSTAVGWYQQEPGQSPKLLIYSASNRHTGVPDRFTGSGSGTDFTFTISSVQAEDLAVYYCQQHYSSPWTFGGGTKLEIK	–	–	–	–	–	–	≤ 0.0001 s⁻¹	4.74 nM	95%	1.1 nM	4.74 nM	EC50, % neutralization of hPAI-1 (chromogenic assay) [22]: 1.24 nM
APGv2 (antibody, V domains shown, humanized APG; captured by anti-human IgG (Fc); also called APG variant 2) VH: QVQLVQSGSELKKPGASVKVSCKASGYSFTDYNMNWVRQAPGQGLEWIGIIHPNSGTTTYNQKFKGRAVLSVDQSVSTAYLQISSLKAEDTAVYYCARSKLRFFDYWGQGTLVTVSS VL: DIQLTQSPSSLSASVGDRVTITCKASQDIYSYLSWFQQKPGKAPKTLIYRANRLIDGVPSRFSGSGSGQDYTFTISSLQPEDIATYYCLQYDEFPFTFGQGTKLEIK	0.0408 nM	0.000269 s⁻¹	0.962 nM	94.5%	2.08 nM	114%	–	–	–	–	–	–
E21 (antibody, mouse IgG2b, V domains shown, mouse IgG2b; also called mE21; E21 (IgG2b)) VH: EVQLQQSGAELVRSGASVKLSCTASGFNIKDYYMHWVKQRPEQGLEWIGWIDPENGDTEYDPKFQAKATMTADTSSNTAYLQLSSLTSEDTAVYYCMYGNYPYYFDYWGQGTTLTVSS VL: DIQMTQTTSSLSASLGDRVTISCRASQDISNYLNWYQQKPDGTVKLLIYYTSRLHSGVPSRFSGSGSGTDYSLTISNLEQEDIATYFCQQGNTLPWTFGGGTKLEIK	–	–	–	–	–	–	≤ 0.0001 s⁻¹	–	–	1.3 nM	216 nM	EC50, % neutralization of hPAI-1 (chromogenic assay) [22]: 1.08 nM

Further lines, with some results ahead:

Kd [1]	koff [1]	PAI-1 activity in human plasma (uPA-PAI-1 complex ELISA), IC50abs [2]	PAI-1 activity in human plasma (uPA-PAI-1 complex ELISA), Imax [2]	human plasma clot lysis, IC50 [3]	human plasma clot lysis, Imax @ 100 nM [3]	koff [16]	plasmin generation, hepatic stellate cells, IC50abs [18]	plasmin generation, hepatic stellate cells, Imax [18]	Chromogenic Assays [19]	Plasmin Generation [19]	Binder	further results
0.113 nM	0.000432 s⁻¹	1.81 nM	89.7%	2.34 nM	123%	–	–	–	–	–	APG (antibody, V domains shown, murine anti-PAI-1 antibody of DE2000153251; also called mAPG; mouse APG) VH: QVKLQESGPELVKPGASVKISCKASGYSFTDYNMNWVKQSKGKSLEWIGIIHPNSGTTTYNQKFKGKATLTVDQSSSTAYLQLNSLTSEDSAVYYCARSKLRFFDYWGQGTTVTVSS VL: DIKLTQSPSSMYASLGERVTITCKASQDIYSYLSWFQQKPGKSPKTLIYRANRLIDGVPSRFSGSGSGQDYSLTISSLEYEHMGIYYCLQYDEFPFTFGSGTKLEIK	–
–	–	–	–	–	–	≤ 0.0001 s⁻¹	8.61 nM	90%	~4 nM	8.61 nM	A71 (antibody, mouse IgG1, V domains shown, mouse IgG1/kappa; also called mA71; A71 (IgG1/k)) VH: QVQLQQSGAELMKPGASVKISCKATGFTFSTYWIEWIKQRPGHGLDWIGEILPGSGNTNYNEKFKGKATFTADTSSNTVYMQLSSLTSEDSAVYYCARGGLYYNLDSWGQGTTLTVSS VL: not shown	binding result [17]: binds
–	–	–	–	–	–	≤ 0.0001 s⁻¹	27 nM	88%	7 nM	27 nM	A105 (antibody, mouse IgG1, V domains shown, mouse IgG1/kappa; also called mA105; A105 (IgG1/k)) VH: QVQLQQSGAELMKPGASVKISCKATGFTFSIYWIEWVKQRPGLGLEWIGEILPGSGSTNYNEKFKGKATFTADTSSNTAFMQLSSLTSEDSAVYYCARGGLYYDLDYWGQGTILTVSS VL: not shown	Kd [20]: 0.042 nM; Kd [21]: 0.0423 nM; koff [21]: 0.000164 s⁻¹; binding result [17]: binds
0.038 nM	0.000359 s⁻¹	1.28 nM	94.4%	2.82 nM	116%	–	–	–	–	–	APGv4 (antibody, V domains shown, humanized APG; captured by anti-human IgG (Fc); also called APG variant 4) VH: QVQLVQSGAEVKKPGASVKVSCKASGYSFTDYNMNWVRQAPGQGLEWIGIIHPNSGTTTYNQKFKGRATLTVDQSTSTAYMELSSLRSEDTAVYYCARSKLRFFDYWGQGTLVTVSS VL: DIQLTQSPSSLSASVGDRVTITCKASQDIYSYLSWFQQKPGKAPKTLIYRANRLIDGVPSRFSGSGSGQDYTFTISSLQPEDIATYYCLQYDEFPFTFGQGTKLEIK	–
